Among the data in paper PMC6695498 (2019) are Kd values, retold here.

By Kd is commonly meant the concentration at which binding is half-saturated. Read a low Kd as a tighter complex.

The target in experiment [1] is SUMO2 chain (linear dimer/trimer) (Homo sapiens, UniProt P61956). In words: ITC. On the technique in general: ITC needs no label: the signal is the heat of the interaction.
Experiment [2] has as its target SUMO1-capped SUMO2 chain (linear dimer/trimer) (Homo sapiens, UniProt P63165). Briefly: ITC.

SUMO2 chain (linear dimer/trimer), sequence (P61956 1-93): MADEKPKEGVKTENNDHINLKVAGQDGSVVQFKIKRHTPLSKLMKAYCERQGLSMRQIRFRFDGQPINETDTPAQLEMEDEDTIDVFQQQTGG
SUMO1-capped SUMO2 chain (linear dimer/trimer), sequence (P63165 2-97, chain 1 of 2): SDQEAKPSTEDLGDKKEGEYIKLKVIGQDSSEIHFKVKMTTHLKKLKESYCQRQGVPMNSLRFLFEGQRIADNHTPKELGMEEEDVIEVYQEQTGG
SUMO1-capped SUMO2 chain (linear dimer/trimer), sequence (chain, as listed by the source, chain 2 of 2): as the sequence (P61956 1-93) above

B1: Arkadia SUMO-binding domain (protein)
chain: VLARRKYALLPSSSSSSENDLSSESSSSSSTEGEEDLFVSASENHQNNPAVPSGSIDEDVVVIEASSTPQVTANEEINVTSTDSEVEIVTVGESYRSRSTLGHSRSHWSQGSSSHASRPQEPRNRSRISTVIQPLRQNAAEVVDLTVDEDEPTVVPTTSARMES
Regarding B1, the Kd in experiment [1] is roughly 13.5 µM; in experiment [2], roughly 2500 nM.
